Source: patent publication US7482004B2, “Inhibitors of placental growth factor for the treatment of pathological angiogenesis, pathological arteriogenesis, inflammation, tumor formation and/or vascular leakage” (Vlaams Interuniversitair Instituut voor Biotechnologie vzw, priority 2000, dated 2009)
Marks after values point to notes of the source that are not given here.

Experiments:
[1] = test system: PIGF^+/+ and PIGF^−/− smooth muscle cells; assay: Smooth muscle cell migration; type: cell-based, mouse
Protocol: (§1) The reduced response of PIGF^−/− endothelial cells to VEGF was confirmed using cultured primary PIGF^−/− endothelial cells. […] Thus, PIGF determines and synergistically amplifies the response to VEGF.
(§2) Endothelial and smooth muscle cell culture: In order to obtain mouse capillary endothelial cells, anesthetized mice were injected s.c. with 500 μl of ice-cold matrigel containing bFGF (100 ng/ml) and heparin (100 μg/ml). After seven days, the matrigel pellet was dissected and enzymatically dispersed using 0.1% type II collagenase (Sigma, St. Louis, Mo.). Mouse endothelial cells were routinely cultured in T75 flasks coated with 0.1% gelatin in M131 medium supplemented with 5% MVGS (Gibco-BRL). Smooth muscle cells from mouse aorta were harvested and cultured as described (J. M. Herbert et al., 1997, FEBS Lett. 413, 401-404). Before stimulation, cells were starved in medium with 0.5% serum for 24 hours, after which they were stimulated with human VEGF165 and/or murine PIGF, or bFGF (all from R&D, Abingdon, UK) for 24 hours before analysis of the total cell number (proliferation) or the number of cells migrated after scrape-wounding (migration).

[2] = test system: PLGF^−/− endothelial cells; assay: Endothelial proliferation, PLGF-/- cells; type: cell-based, mouse
Description: (§3) Proliferation and survival of endothelial cells in response to VEGF were studied. […] PIGF was also found to modulate the mitogenic response to VEGF of smooth muscle cells, known to express VEGFR-1 and VEGFR-2 (C. L. Grosskreutz et al., 1999, Microvasc. Res. 58, 128-136). […] Thus, PIGF affected endothelial and smooth muscle cells only when they were stimulated with VEGF.
(§4) The data represent the mean±SD of nine to twelve experiments. *: p<0.05 versus control (vehicle). None of the antibodies affected baseline endothelial proliferation in the absence of VEGF (not shown). Ab: polyclonal antiserum; MoAb: monoclonal antibodies; bFGF: basic fibroblast growth factor.
as §2, with “Before stimulation, cells were starved in medium with 0.5% serum for 24 hours, after which they were stimulated with human VEGF165 and/or murine PIGF, or bFGF (all from R&D, Abingdon, UK) for 24 hours before analysis of the total cell number (proliferation) or the number of cells migrated after scrape-wounding (migration).” left out

[3] = test system: PIGF^+/+ and PIGF^−/− smooth muscle cells; assay: Smooth muscle cell proliferation; type: cell-based, mouse
Description: as §3, §2

[4] = test system: PIGF^+/+ and PIGF^−/− endothelial cells; assay: Endothelial cell migration (chemotaxis); type: cell-based, mouse; conditions: for chemotaxis of endothelial cells: 100 ng/ml (VEGF165, PIGF), both genotypes
Protocol: as §1, §2

PIGF^−/− mice = assay: Matrigel assay, PIGF-/- mice; type: in vivo, mouse; conditions: subcutaneous matrigel with 100 ng/ml factor, seven days, n=15
Description: (§5) Since VEGF plays a role in the above-mentioned phenotypes of angiogenesis, arteriogenesis and permeability, we investigated whether PIGF determined the responsiveness to VEGF. Subcutaneous implantation of matrigel (A. Passaniti et al., 1992, Lab. Invest. 67, 519-528) supplemented with VEGF165 (VEGF165) induced a strong angiogenic response in PIGF^+/+ but not in PIGF^−/− mice (hemoglobin content: 0.28±0.02 g/dl in PIGF^+/+ mice versus 0.02±0.02 g/dl in PIGF^−/− mice; n=15; p<0.05).
(§6) In contrast, basic fibroblast growth factor (bFGF) induced a similar angiogenic response in both genotypes (hemoglobin content: 0.28±0.02 g/dl in PIGF^+/+ mice versus 0.25±0.02 g/dl in PIGF^−/− mice; n=15; p=NS). These observations were confirmed by histological analysis and immunostaining for endothelial factor VIII-related antigen.
(§7) Matrigel assay: Ingrowth of capillaries in matrigel was performed as described (A. Passaniti et al., 1992, Lab. Invest. 67, 519-528). […] After seven days, the matrigel pellet with the neovessels was dissected for analysis of neovascularization: one part was homogenized to determine the hemoglobin content determined using Drabkin's reagent (Sigma, St. Quentin Fallavier, France), whereas the other part was fixed in 1% paraformaldehyde for histological analysis.

PIGF^+/+ mice = assay: Matrigel assay, PIGF+/+ mice; type: in vivo, mouse; conditions: subcutaneous matrigel with 100 ng/ml factor, seven days, n=15
Description: as §5, §6, §7

[5] = test system: PLGF^+/+ endothelial cells; assay: Endothelial proliferation, PLGF+/+ cells; type: cell-based, mouse
Description: as §3, §4
as §2, with “Before stimulation, cells were starved in medium with 0.5% serum for 24 hours, after which they were stimulated with human VEGF165 and/or murine PIGF, or bFGF (all from R&D, Abingdon, UK) for 24 hours before analysis of the total cell number (proliferation) or the number of cells migrated after scrape-wounding (migration).” left out

PIGF^+/+ fibroblasts = assay: VEGF production by PIGF+/+ fibroblasts; type: cell-based; conditions: 100 ng/ml for 48 hours
Protocol: (§8) Expression of VEGF by PIGF^−/− fibroblasts was increased by PIGF (VEGF production per 10^6 cells/ml/24 hours: 180±10 pg after treatment with vehicle versus 440±10 pg after treatment with 100 ng/ml PIGF for 48 hours; p<0.05 versus vehicle). Similar results were obtained for PIGF^+/+ fibroblasts (VEGF production per 10^6 cells/ml/24 hours: 200±8 pg after treatment with vehicle versus 430±5 pg after treatment with 100 ng/ml PIGF for 48 hours; p<0.05 versus vehicle).

PIGF^−/− fibroblasts = assay: VEGF production by PIGF-/- fibroblasts; type: cell-based; conditions: 100 ng/ml for 48 hours
Protocol: as §8

[6] = test system: PIGF^+/+ and PIGF^−/− endothelial cells; assay: Endothelial cell survival (apoptosis by serum deprivation or TNF-α); type: cell-based, mouse
Description: as §3, §2

[7] = PIGF added to VEGF165, PIGF^−/− endothelial cells

Molecule: bFGF: basic fibroblast growth factor
- migration of smooth muscle cells [1]: stimulated smooth muscle cells of both genotypes
- Endothelial proliferation ([2]; 50 ng/ml): 35 ± 5*
- smooth muscle cell proliferation [3]: comparable responses
- chemotaxis of endothelial cells [4]: both genotypes responded comparably
- hemoglobin content (angiogenic response in matrigel) (PIGF^−/− mice): 0.25 ± 0.02 g/dL
- hemoglobin content (angiogenic response in matrigel) (PIGF^+/+ mice): 0.28 ± 0.02 g/dL
- Endothelial proliferation ([5]; 50 ng/ml): 35 ± 2*

B1: PLGF: murine Placental Growth Factor (R&D) (protein, UniProt P49764 19-158, looked up)
Placenta growth factor: VHSQGALSAGNNSTEVEVVPFNEVWGRSYCRPMEKLVYILDEYPDEVSHIFSPSCVLLSRCSGCCGDEGLHCVPIKTANITMQILKIPPNRDPHFYVEMTFSQDVLCECRPILETTKAERRKTKGKRKRSRNSQTEEPHP
- migration of smooth muscle cells [1]: rescued the impaired smooth muscle cell response to VEGF
- Endothelial proliferation ([2]; 100 ng/ml of each factor): 11 ± 1
- smooth muscle cell proliferation [3]: ineffective by itself, restored the responsiveness of PIGF^−/− cells to VEGF
- chemotaxis of endothelial cells [4]: not chemotactic for endothelial cells of either genotype
- migration of endothelial cells in response to VEGF165 [4, 7]: completely restored the impaired migration
- VEGF production per 10^6 cells/ml/24 hours (PIGF^+/+ fibroblasts): 430±5 pg
- VEGF production per 10^6 cells/ml/24 hours (PIGF^−/− fibroblasts): 440±10 pg
- proliferation and survival response to VEGF165 [6, 7]: rescued the impaired proliferation and survival response
- mitogenic and anti-apoptotic activity ([6]; factor alone, endothelial cells of either genotype): not mitogenic nor anti-apoptotic
- Endothelial proliferation ([5]; 100 ng/ml of each factor): 11 ± 1
